Earlier results as cited in paper PMC9884707.

Biological target: SHARPIN PH domain (20-121) (Homo sapiens) (UniProt Q9H0F6)

Kd: 124 µM
Substance: SHARPIN PH domain (20-121) (from UniProt Q9H0F6)
